Laboratory results published in paper PMC11164899, “A novel inhibitory BAK antibody enables assessment of non-activated BAK in cancer cells” (Cell Death and Differentiation, 2024).
Numbering of substitutions follows the chain as printed.

Key:
[1] = molecular target: T1, human BAK, full-length, in mitochondria-enriched membrane fractions of bak−/−bax−/− MEFs (Homo sapiens, UniProt Q16611); assay: immunoprecipitation; membrane fractions of MEFs expressing hBAK, no cBID, solubilized in 1% digitonin, pre-cleared; Protein G Sepharose with 4 μg antibody, 4 °C, 1-2 h; blot for BAK; conditions: one partner purified
T1 construct: BAK, human, full-length; also called hBAK; source: stably expressed in SV40-immortalized bak−/−bax−/− MEFs; permeabilized cells or membrane fractions, solubilized in 1% digitonin for IP and BN-PAGE

hBAKΔN22ΔC25Δcys M60W = molecular target: T2, hBAKΔN22ΔC25Δcys M60W (Homo sapiens, M60W | Δcys (cysteine to serine; position C166 from memory, not given)); assay: SPR; 14G6 (about 150 RU) captured on a Protein A chip; BAK injected in a threefold dilution series (0.45-1000 nM), single-cycle kinetics; 25 °C, DPBS + 0.005% Tween-20; 1:1 binding model; mean ± SD of three experiments; conditions: both partners purified
T2 construct: BAK, human, ΔN22ΔC25, wild-type cysteine residues replaced with serine, M60W; also called hBAK M60W; BAK M60W; source: E. coli BL21 (DE3), purified (glutathione resin, HRV-3C cleavage, SEC Superdex S75)
T2 chain: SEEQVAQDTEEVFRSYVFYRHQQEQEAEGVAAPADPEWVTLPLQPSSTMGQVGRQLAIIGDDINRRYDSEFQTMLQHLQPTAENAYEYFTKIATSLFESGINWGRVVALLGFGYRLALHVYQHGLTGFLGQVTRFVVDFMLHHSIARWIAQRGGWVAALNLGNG

hBAKΔN22ΔC25Δcys M60G = molecular target: T3, hBAKΔN22ΔC25Δcys M60G (Homo sapiens, M60G | Δcys (cysteine to serine; position C166 from memory, not given)); assay: as above; conditions: both partners purified
T3 construct: BAK, human, ΔN22ΔC25, wild-type cysteine residues replaced with serine, M60G; also called hBAK M60G; BAK M60G; source: E. coli BL21 (DE3), purified (glutathione resin, HRV-3C cleavage, SEC Superdex S75)
T3 chain: T2 chain with W38G

hBAKΔN22ΔC25Δcys [2] = molecular target: T4, hBAKΔN22ΔC25Δcys (Homo sapiens, Δcys (cysteine to serine; position C166 from memory, not given)); assay: as above; conditions: both partners purified
T4 construct: BAK, human, lacking the N-terminal 22 residues and the C-terminal 25 residues (transmembrane anchor); wild-type cysteine residues replaced with serine; also called BAKΔTM; source: E. coli BL21 (DE3), purified (glutathione resin, HRV-3C cleavage, SEC Superdex S75)
T4 chain: T2 chain with W38M

mBAKΔN20ΔC25Δcys = molecular target: T5, mBAKΔN20ΔC25Δcys (Mus musculus, stabilised); assay: as above; conditions: both partners purified
T5 construct: BAK, mouse, lacking the N-terminal 20 and the C-terminal 25 residues; wild-type cysteine residues replaced with serine; also called mouse BAK; source: E. coli BL21 (DE3), purified (glutathione resin, HRV-3C cleavage, SEC Superdex S75)
T5 chain: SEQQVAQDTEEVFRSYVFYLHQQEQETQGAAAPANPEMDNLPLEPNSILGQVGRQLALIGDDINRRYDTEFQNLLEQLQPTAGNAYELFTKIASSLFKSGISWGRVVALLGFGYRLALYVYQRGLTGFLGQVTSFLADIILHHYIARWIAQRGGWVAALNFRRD

[3] = molecular target: T6, BAK, endogenous, in human leukaemia cell lines (Homo sapiens, UniProt Q16611); assay: native gel or EMSA; untreated membrane fractions incubated with antibody on ice for 30 min, solubilized with 1% digitonin, BN-PAGE, blot for BAK (gel-shift); conditions: one partner purified
T6 construct: BAK, endogenous in blood cancer cell lines established from patients with ALL or AML; the methods list RS4;11, MOLM-13, KG-1, HL-60, OCI-AML3, MV4;11 and THP-1; source: endogenous, membrane fractions of human ALL and AML cell lines, solubilized in 1% digitonin

hBAKΔN22ΔC25Δcys [4] = molecular target: T4, hBAKΔN22ΔC25Δcys; assay: SEC; 14G6 Fab mixed with a 1.5-fold excess of BAKΔTM; Superdex 200 Increase 10/300 in TBS; complex of ca 65 kDa; conditions: both partners purified

T6 sequence (Q16611 whole entry): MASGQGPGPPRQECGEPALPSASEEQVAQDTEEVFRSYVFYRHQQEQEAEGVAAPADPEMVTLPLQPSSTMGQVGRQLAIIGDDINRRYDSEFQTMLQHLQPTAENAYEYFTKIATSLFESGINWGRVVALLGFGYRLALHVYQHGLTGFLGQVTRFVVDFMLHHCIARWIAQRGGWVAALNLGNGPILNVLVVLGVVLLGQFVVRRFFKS

B1: 14G6 antibody (antibody, V domains shown)
VH: EVKLVESGAELVRPGTSVKVSCKASGYAFTNYLIEWVKQRPGQGLEWIGVINPGSGGTNYNEKFKGKATLTADKSSSTAYMQLTSLTSDDSAVYFCASPSLYGSFDYWGQGTTVTVSS
VL: DIVMTQSHKFMSTSVGDRVSITCKASQDVGTAVAWYQQKPGQSPKLLIYWASTRHTGVPDRFTGSGSGTDFTLTISNVQSEDLADYFCQQYSSYRTFGGGTKLEIK
notes: mouse variable region, human constant region; The results call it a chimera with human constant regions; the immunoprecipitation methods call it '14G6 mouse monoclonal antibody'; Used as an AF488 conjugate for immunocytochemistry; also called clone 14G6; 14G6-AF488; source: mouse B cell cloning; recovered antibody variable regions expressed as chimeras containing human constant regions; copies: 2 …
In the case of B1, the binding result [1] is reported as “binds”, the Kd (hBAKΔN22ΔC25Δcys M60W) is reported as 9 nM and the koff (hBAKΔN22ΔC25Δcys M60W) is reported as 5e-05 s⁻¹. For the same binder, the kon (hBAKΔN22ΔC25Δcys M60W) was 4900 M⁻¹ s⁻¹, the Kd (hBAKΔN22ΔC25Δcys M60G) was 0.6 nM and the koff (hBAKΔN22ΔC25Δcys M60G) was 7e-05 s⁻¹. The kon (hBAKΔN22ΔC25Δcys M60G) was 110000 M⁻¹ s⁻¹, the Kd (hBAKΔN22ΔC25Δcys [2]) was 10 nM and the koff (hBAKΔN22ΔC25Δcys [2]) was 7e-05 s⁻¹. The kon (hBAKΔN22ΔC25Δcys [2]) was 6000 M⁻¹ s⁻¹, the Kd (mBAKΔN20ΔC25Δcys) was 1140 nM and the koff (mBAKΔN20ΔC25Δcys) was 0.00092 s⁻¹. For the same binder, the kon (mBAKΔN20ΔC25Δcys) was 810 M⁻¹ s⁻¹ and the binding result [3] was “binds”.

B2: 14G6 Fab (Fab, V domains shown)
VH: B1 VH
VL: B1 VL
notes: Fab part of the heavy chain of m1; as the light chain of m1; also called Fab fragment of antibody 14G6; source: papain cleavage of the full-length antibody, purified by cation exchange (Mono S)
In the case of B2, the “stoichiometry N” value (hBAKΔN22ΔC25Δcys [4]) is reported as 1.
